# Experimental data as given in US20140241987A1.
# Experiments:
# [1] = biological target: α-synuclein fibrils (human) (UniProt P37840); assay: SPR, BIAcore X100, fibrils immobilised on CM5, mAb injected
# [2] = biological target: α-synuclein fibrils (human) (UniProt P37840); assay: inhibition ELISA, fibrils against monomers
Kd [1],koff [1],kon [1],Fold Affinity to Fibrils [2],Substance
16 pM,9.36e-05 s⁻¹,5.86e+06 M⁻¹ s⁻¹,12700 fold,Syn-O1 (antibody)
171 pM,0.000379 s⁻¹,2.22e+06 M⁻¹ s⁻¹,11100 fold,Syn-O3 (antibody)
138 pM,0.000996 s⁻¹,7.24e+06 M⁻¹ s⁻¹,6930 fold,Syn-O4 (antibody)
96.9 pM,0.00127 s⁻¹,1.31e+07 M⁻¹ s⁻¹,27300 fold,Syn-O2 (antibody)
